Measured values reported in paper PMC7081908, “Glycan Profiles of gp120 Protein Vaccines from Four Major HIV-1 Subtypes Produced from Different Host Cell Lines under Non-GMP or GMP Conditions” (Journal of Virology, 2020).
Values joined by “and” are separate entries in the source; they are usually repeats but may differ in a detail not shown here. Equal values may be shown once.

Molecular target: IgG-CD4 protein (fusion protein of human CD4 domains 1 and 2 with human IgG1 Fc at the C terminus) (human)
Assay: BLI; Octet QKe; IgG-CD4 loaded onto protein G sensors at 20 ug/ml in ForteBio kinetics buffer; serial dilutions of gp120 (600 nM to 0.4 nM) in solution; Kd = koff/kon, 1:1 fitting model; two GMP lots of each gp120
Details: both partners purified

B1: GMP-grade gp120 protein, HIV-1 clade A isolate 92UG037.8 (natural protein)
chain: not shown
In the case of B1, the Kd is reported as 5.48 nM and 3.62 nM.
